B1: IKZF1 (parent)
chain: RDPFECNMCGYHSQDRYEFSSHIT

Variants of: B1
Experiment: protein stability index of a GFP-peptide fusion (GPS, HEK-293T) (PSI 1-6); higher = more stable
Details: c terminus: a fixed tail appended
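Note: lentivirally expressed fusions sorted by FACS into six bins by GFP to DsRed ratio, PSI derived from sequencing read proportions per bin multiplied by bin number.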

Variant	protein stability index
FDPFECNMCGYHSQDRYEFSSHIT [R1F]	1.88
MDPFECNMCGYHSQDRYEFSSHIT [R1M]	2.26
VDPFECNMCGYHSQDRYEFSSHIT [R1V]	2.25
GDPFECNMCGYHSQDRYEFSSHIT [R1G]	2.49
DDPFECNMCGYHSQDRYEFSSHIT [R1D]	2.73
SDPFECNMCGYHSQDRYEFSSHIT [R1S]	2.1
YDPFECNMCGYHSQDRYEFSSHIT [R1Y]	1.73
EDPFECNMCGYHSQDRYEFSSHIT [R1E]	2.67
WDPFECNMCGYHSQDRYEFSSHIT [R1W]	2.2
QDPFECNMCGYHSQDRYEFSSHIT [R1Q]	2.55
NDPFECNMCGYHSQDRYEFSSHIT [R1N]	2.44
PDPFECNMCGYHSQDRYEFSSHIT [R1P]	2.43
ADPFECNMCGYHSQDRYEFSSHIT [R1A]	2.63
CDPFECNMCGYHSQDRYEFSSHIT [R1C]	2.47
IDPFECNMCGYHSQDRYEFSSHIT [R1I]	2.13
TDPFECNMCGYHSQDRYEFSSHIT [R1T]	2.23
KDPFECNMCGYHSQDRYEFSSHIT [R1K]	2.15
LDPFECNMCGYHSQDRYEFSSHIT [R1L]	2.31
HDPFECNMCGYHSQDRYEFSSHIT [R1H]	2.92
RDPFECNMQGYHSQDRYEFSSHIT [C9Q]	2.57
RDPFECNMWGYHSQDRYEFSSHIT [C9W]	2.36
RDPFECNMPGYHSQDRYEFSSHIT [C9P]	3.09
RDPFECNMDGYHSQDRYEFSSHIT [C9D]	3.83
RDPFECNMVGYHSQDRYEFSSHIT [C9V]	3.06

Variant	protein stability index
RDPFECNMRGYHSQDRYEFSSHIT [C9R]	3.24
RDPFECNMAGYHSQDRYEFSSHIT [C9A]	2.98
RDPFECNMTGYHSQDRYEFSSHIT [C9T]	3.55
RDPFECNMGGYHSQDRYEFSSHIT [C9G]	3.02
RDPFECNMYGYHSQDRYEFSSHIT [C9Y]	2.63
RDPFECNMSGYHSQDRYEFSSHIT [C9S]	3.42
RDPFECNMLGYHSQDRYEFSSHIT [C9L]	3.05
RDPFECNMMGYHSQDRYEFSSHIT [C9M]	3.06
RDPFECNMNGYHSQDRYEFSSHIT [C9N]	3.28
RDPFECNMHGYHSQDRYEFSSHIT [C9H]	2.63
RDPFECNMKGYHSQDRYEFSSHIT [C9K]	3.19
RDPFECNMFGYHSQDRYEFSSHIT [C9F]	2.34
RDPFECNMIGYHSQDRYEFSSHIT [C9I]	3.08
RDPFECNMEGYHSQDRYEFSSHIT [C9E]	3.7
RDPFECNMCRYHSQDRYEFSSHIT [G10R]	2.13
RDPFECNMCPYHSQDRYEFSSHIT [G10P]	2.44
RDPFECNMCDYHSQDRYEFSSHIT [G10D]	2.8
RDPFECNMCKYHSQDRYEFSSHIT [G10K]	2.32
RDPFECNMCQYHSQDRYEFSSHIT [G10Q]	2.58
RDPFECNMCLYHSQDRYEFSSHIT [G10L]	2.08
RDPFECNMCCYHSQDRYEFSSHIT [G10C]	2.49
RDPFECNMCIYHSQDRYEFSSHIT [G10I]	1.92
RDPFECNMCNYHSQDRYEFSSHIT [G10N]	2.4
RDPFECNMCMYHSQDRYEFSSHIT [G10M]	1.82

Variant	protein stability index
RDPFECNMCVYHSQDRYEFSSHIT [G10V]	2.07
RDPFECNMCHYHSQDRYEFSSHIT [G10H]	2.33
RDPFECNMCFYHSQDRYEFSSHIT [G10F]	1.81
RDPFECNMCEYHSQDRYEFSSHIT [G10E]	2.79
RDPFECNMCSYHSQDRYEFSSHIT [G10S]	2.7
RDPFECNMCTYHSQDRYEFSSHIT [G10T]	2.69
RDPFECNMCAYHSQDRYEFSSHIT [G10A]	2.16
RSPFECNMCGYHSQDRYEFSSHIT [D2S]	1.73
RCPFECNMCGYHSQDRYEFSSHIT [D2C]	2.19
RGPFECNMCGYHSQDRYEFSSHIT [D2G]	1.95
RKPFECNMCGYHSQDRYEFSSHIT [D2K]	1.96
RVPFECNMCGYHSQDRYEFSSHIT [D2V]	2.21
REPFECNMCGYHSQDRYEFSSHIT [D2E]	2.18
RYPFECNMCGYHSQDRYEFSSHIT [D2Y]	1.77
RQPFECNMCGYHSQDRYEFSSHIT [D2Q]	2.04
RHPFECNMCGYHSQDRYEFSSHIT [D2H]	1.75
RPPFECNMCGYHSQDRYEFSSHIT [D2P]	1.98
RRPFECNMCGYHSQDRYEFSSHIT [D2R]	1.99
RWPFECNMCGYHSQDRYEFSSHIT [D2W]	1.92
RLPFECNMCGYHSQDRYEFSSHIT [D2L]	1.93
RNPFECNMCGYHSQDRYEFSSHIT [D2N]	1.96
RIPFECNMCGYHSQDRYEFSSHIT [D2I]	2.2
RMPFECNMCGYHSQDRYEFSSHIT [D2M]	1.68
RFPFECNMCGYHSQDRYEFSSHIT [D2F]	1.57

Variant	protein stability index
RTPFECNMCGYHSQDRYEFSSHIT [D2T]	1.82
RAPFECNMCGYHSQDRYEFSSHIT [D2A]	1.63
RDPFECQMCGYHSQDRYEFSSHIT [N7Q]	2.01
RDPFECMMCGYHSQDRYEFSSHIT [N7M]	1.97
RDPFECHMCGYHSQDRYEFSSHIT [N7H]	2.25
RDPFECKMCGYHSQDRYEFSSHIT [N7K]	2.37
RDPFECAMCGYHSQDRYEFSSHIT [N7A]	1.75
RDPFECFMCGYHSQDRYEFSSHIT [N7F]	1.33
RDPFECDMCGYHSQDRYEFSSHIT [N7D]	2.51
RDPFECYMCGYHSQDRYEFSSHIT [N7Y]	1.83
RDPFECPMCGYHSQDRYEFSSHIT [N7P]	3.61
RDPFECWMCGYHSQDRYEFSSHIT [N7W]	1.93
RDPFECCMCGYHSQDRYEFSSHIT [N7C]	1.89
RDPFECSMCGYHSQDRYEFSSHIT [N7S]	1.72
RDPFECEMCGYHSQDRYEFSSHIT [N7E]	2.29
RDPFECTMCGYHSQDRYEFSSHIT [N7T]	2.18
RDPFECVMCGYHSQDRYEFSSHIT [N7V]	2.04
RDPFECGMCGYHSQDRYEFSSHIT [N7G]	2.25
RDPFECLMCGYHSQDRYEFSSHIT [N7L]	1.79
RDPFECRMCGYHSQDRYEFSSHIT [N7R]	1.49
RDPFECIMCGYHSQDRYEFSSHIT [N7I]	2.05
RDPFECNKCGYHSQDRYEFSSHIT [M8K]	2.52
RDPFECNWCGYHSQDRYEFSSHIT [M8W]	2.34
RDPFECNLCGYHSQDRYEFSSHIT [M8L]	2.18

Variant	protein stability index
RDPFECNACGYHSQDRYEFSSHIT [M8A]	1.81
RDPFECNVCGYHSQDRYEFSSHIT [M8V]	2.3
RDPFECNGCGYHSQDRYEFSSHIT [M8G]	2.07
RDPFECNHCGYHSQDRYEFSSHIT [M8H]	2.17
RDPFECNPCGYHSQDRYEFSSHIT [M8P]	2.64
RDPFECNQCGYHSQDRYEFSSHIT [M8Q]	2.21
RDPFECNSCGYHSQDRYEFSSHIT [M8S]	2.4
RDPFECNYCGYHSQDRYEFSSHIT [M8Y]	2.4
RDPFECNFCGYHSQDRYEFSSHIT [M8F]	2.23
RDPFECNTCGYHSQDRYEFSSHIT [M8T]	2.39
RDPFECNNCGYHSQDRYEFSSHIT [M8N]	2.54
RDPFECNRCGYHSQDRYEFSSHIT [M8R]	2.02
RDPFECNDCGYHSQDRYEFSSHIT [M8D]	3.11
RDPFECNECGYHSQDRYEFSSHIT [M8E]	3.08
RDPFECNICGYHSQDRYEFSSHIT [M8I]	2.16
RDPFECNCCGYHSQDRYEFSSHIT [M8C]	2.19
RDGFECNMCGYHSQDRYEFSSHIT [P3G]	1.94
RDIFECNMCGYHSQDRYEFSSHIT [P3I]	1.91
RDHFECNMCGYHSQDRYEFSSHIT [P3H]	2.59
RDNFECNMCGYHSQDRYEFSSHIT [P3N]	1.94
RDFFECNMCGYHSQDRYEFSSHIT [P3F]	1.44
RDVFECNMCGYHSQDRYEFSSHIT [P3V]	1.76
RDTFECNMCGYHSQDRYEFSSHIT [P3T]	2.02
RDQFECNMCGYHSQDRYEFSSHIT [P3Q]	2.18

Variant	protein stability index
RDWFECNMCGYHSQDRYEFSSHIT [P3W]	1.69
RDAFECNMCGYHSQDRYEFSSHIT [P3A]	1.64
RDKFECNMCGYHSQDRYEFSSHIT [P3K]	2.04
RDCFECNMCGYHSQDRYEFSSHIT [P3C]	2.21
RDRFECNMCGYHSQDRYEFSSHIT [P3R]	2.04
RDYFECNMCGYHSQDRYEFSSHIT [P3Y]	1.5
RDLFECNMCGYHSQDRYEFSSHIT [P3L]	1.68
RDDFECNMCGYHSQDRYEFSSHIT [P3D]	2.99
RDEFECNMCGYHSQDRYEFSSHIT [P3E]	2.29
RDMFECNMCGYHSQDRYEFSSHIT [P3M]	1.76
RDSFECNMCGYHSQDRYEFSSHIT [P3S]	2.03
RDPFLCNMCGYHSQDRYEFSSHIT [E5L]	2.08
RDPFCCNMCGYHSQDRYEFSSHIT [E5C]	2.11
RDPFDCNMCGYHSQDRYEFSSHIT [E5D]	2.7
RDPFHCNMCGYHSQDRYEFSSHIT [E5H]	1.9
RDPFWCNMCGYHSQDRYEFSSHIT [E5W]	1.59
RDPFRCNMCGYHSQDRYEFSSHIT [E5R]	1.92
RDPFFCNMCGYHSQDRYEFSSHIT [E5F]	1.78
RDPFTCNMCGYHSQDRYEFSSHIT [E5T]	2.38
RDPFPCNMCGYHSQDRYEFSSHIT [E5P]	1.91
RDPFQCNMCGYHSQDRYEFSSHIT [E5Q]	2.06
RDPFACNMCGYHSQDRYEFSSHIT [E5A]	2.13
RDPFVCNMCGYHSQDRYEFSSHIT [E5V]	2.01
RDPFSCNMCGYHSQDRYEFSSHIT [E5S]	1.33

Variant	protein stability index
RDPFNCNMCGYHSQDRYEFSSHIT [E5N]	1.71
RDPFYCNMCGYHSQDRYEFSSHIT [E5Y]	1.85
RDPFGCNMCGYHSQDRYEFSSHIT [E5G]	1.82
RDPFMCNMCGYHSQDRYEFSSHIT [E5M]	1.88
RDPFKCNMCGYHSQDRYEFSSHIT [E5K]	2.07
RDPFICNMCGYHSQDRYEFSSHIT [E5I]	2.38
RDPPECNMCGYHSQDRYEFSSHIT [F4P]	2.54
RDPDECNMCGYHSQDRYEFSSHIT [F4D]	2.9
RDPCECNMCGYHSQDRYEFSSHIT [F4C]	2.31
RDPYECNMCGYHSQDRYEFSSHIT [F4Y]	2.07
RDPAECNMCGYHSQDRYEFSSHIT [F4A]	2.44
RDPQECNMCGYHSQDRYEFSSHIT [F4Q]	2.91
RDPSECNMCGYHSQDRYEFSSHIT [F4S]	2.52
RDPTECNMCGYHSQDRYEFSSHIT [F4T]	2.97
RDPLECNMCGYHSQDRYEFSSHIT [F4L]	2.17
RDPKECNMCGYHSQDRYEFSSHIT [F4K]	2.77
RDPNECNMCGYHSQDRYEFSSHIT [F4N]	3.05
RDPMECNMCGYHSQDRYEFSSHIT [F4M]	2.4
RDPIECNMCGYHSQDRYEFSSHIT [F4I]	1.89
RDPHECNMCGYHSQDRYEFSSHIT [F4H]	2.47
RDPRECNMCGYHSQDRYEFSSHIT [F4R]	3.08
RDPGECNMCGYHSQDRYEFSSHIT [F4G]	2.68
RDPWECNMCGYHSQDRYEFSSHIT [F4W]	2.27
RDPEECNMCGYHSQDRYEFSSHIT [F4E]	2.66

Variant	protein stability index
RDPVECNMCGYHSQDRYEFSSHIT [F4V]	2.2
RDPFEHNMCGYHSQDRYEFSSHIT [C6H]	2.43
RDPFEVNMCGYHSQDRYEFSSHIT [C6V]	2.5
RDPFEWNMCGYHSQDRYEFSSHIT [C6W]	2.5
RDPFEDNMCGYHSQDRYEFSSHIT [C6D]	3.8
RDPFERNMCGYHSQDRYEFSSHIT [C6R]	2.06
RDPFELNMCGYHSQDRYEFSSHIT [C6L]	1.99
RDPFEINMCGYHSQDRYEFSSHIT [C6I]	2.14
RDPFEKNMCGYHSQDRYEFSSHIT [C6K]	2.49
RDPFEPNMCGYHSQDRYEFSSHIT [C6P]	2.23
RDPFEENMCGYHSQDRYEFSSHIT [C6E]	3.58
RDPFEYNMCGYHSQDRYEFSSHIT [C6Y]	2.04
RDPFETNMCGYHSQDRYEFSSHIT [C6T]	3.21
RDPFESNMCGYHSQDRYEFSSHIT [C6S]	2.5
RDPFEMNMCGYHSQDRYEFSSHIT [C6M]	2.02
RDPFEANMCGYHSQDRYEFSSHIT [C6A]	2.5
RDPFEFNMCGYHSQDRYEFSSHIT [C6F]	1.96
RDPFEQNMCGYHSQDRYEFSSHIT [C6Q]	2.38
RDPFEGNMCGYHSQDRYEFSSHIT [C6G]	2.3
RDPFENNMCGYHSQDRYEFSSHIT [C6N]	2.56
